Here are results for one molecule from paper PMC9127583 (iScience, 2022).

The experiment deals with full-length Hsp70 (UniProt P0DMV8 1-641). Put plainly: NMR titration.
Chain of full-length Hsp70 (P0DMV8 whole entry): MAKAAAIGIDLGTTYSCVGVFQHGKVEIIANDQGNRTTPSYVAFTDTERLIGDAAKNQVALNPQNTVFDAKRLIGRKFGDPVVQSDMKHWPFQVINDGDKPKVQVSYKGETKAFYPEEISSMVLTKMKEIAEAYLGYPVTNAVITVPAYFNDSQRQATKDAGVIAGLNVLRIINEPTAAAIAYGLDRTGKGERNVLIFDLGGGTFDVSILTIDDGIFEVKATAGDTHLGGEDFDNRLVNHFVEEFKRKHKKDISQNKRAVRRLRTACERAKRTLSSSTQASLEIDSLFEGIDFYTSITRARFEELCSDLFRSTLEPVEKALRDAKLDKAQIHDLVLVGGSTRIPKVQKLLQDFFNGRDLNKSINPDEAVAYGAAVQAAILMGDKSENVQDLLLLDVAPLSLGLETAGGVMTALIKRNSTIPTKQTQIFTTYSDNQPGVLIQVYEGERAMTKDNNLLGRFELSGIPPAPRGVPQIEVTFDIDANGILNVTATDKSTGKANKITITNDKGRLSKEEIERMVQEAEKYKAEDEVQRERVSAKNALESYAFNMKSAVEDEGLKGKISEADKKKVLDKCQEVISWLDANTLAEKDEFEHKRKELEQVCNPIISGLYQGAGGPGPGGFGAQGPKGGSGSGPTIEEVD

B1: FUS-LC (residues 1-163) (domain or fragment, UniProt P35637 1-163, looked up)
chain: MASNDYTQQATQSYGAYPTQPGQGYSQQSSQPYGQQSYSGYSQSTDTSGYGQSSYSSYGQSQNTGYGTQSTPQGYGSTGGYGSSQSSQSSYGQQSSYPGYGQQPAPSSTSGSYGSSSQSSSYGQPQSGSYSQQPSYGGQQQSYGQQQSYNPPQGYGQQNQYNS
For the molecule B1, the binding result is listed as “binds”.
